T1: G9a and GLP (Homo sapiens, UniProt Q96KQ7+Q9H9B1)
T1 sequence (Q96KQ7 2-1210 limits assumed): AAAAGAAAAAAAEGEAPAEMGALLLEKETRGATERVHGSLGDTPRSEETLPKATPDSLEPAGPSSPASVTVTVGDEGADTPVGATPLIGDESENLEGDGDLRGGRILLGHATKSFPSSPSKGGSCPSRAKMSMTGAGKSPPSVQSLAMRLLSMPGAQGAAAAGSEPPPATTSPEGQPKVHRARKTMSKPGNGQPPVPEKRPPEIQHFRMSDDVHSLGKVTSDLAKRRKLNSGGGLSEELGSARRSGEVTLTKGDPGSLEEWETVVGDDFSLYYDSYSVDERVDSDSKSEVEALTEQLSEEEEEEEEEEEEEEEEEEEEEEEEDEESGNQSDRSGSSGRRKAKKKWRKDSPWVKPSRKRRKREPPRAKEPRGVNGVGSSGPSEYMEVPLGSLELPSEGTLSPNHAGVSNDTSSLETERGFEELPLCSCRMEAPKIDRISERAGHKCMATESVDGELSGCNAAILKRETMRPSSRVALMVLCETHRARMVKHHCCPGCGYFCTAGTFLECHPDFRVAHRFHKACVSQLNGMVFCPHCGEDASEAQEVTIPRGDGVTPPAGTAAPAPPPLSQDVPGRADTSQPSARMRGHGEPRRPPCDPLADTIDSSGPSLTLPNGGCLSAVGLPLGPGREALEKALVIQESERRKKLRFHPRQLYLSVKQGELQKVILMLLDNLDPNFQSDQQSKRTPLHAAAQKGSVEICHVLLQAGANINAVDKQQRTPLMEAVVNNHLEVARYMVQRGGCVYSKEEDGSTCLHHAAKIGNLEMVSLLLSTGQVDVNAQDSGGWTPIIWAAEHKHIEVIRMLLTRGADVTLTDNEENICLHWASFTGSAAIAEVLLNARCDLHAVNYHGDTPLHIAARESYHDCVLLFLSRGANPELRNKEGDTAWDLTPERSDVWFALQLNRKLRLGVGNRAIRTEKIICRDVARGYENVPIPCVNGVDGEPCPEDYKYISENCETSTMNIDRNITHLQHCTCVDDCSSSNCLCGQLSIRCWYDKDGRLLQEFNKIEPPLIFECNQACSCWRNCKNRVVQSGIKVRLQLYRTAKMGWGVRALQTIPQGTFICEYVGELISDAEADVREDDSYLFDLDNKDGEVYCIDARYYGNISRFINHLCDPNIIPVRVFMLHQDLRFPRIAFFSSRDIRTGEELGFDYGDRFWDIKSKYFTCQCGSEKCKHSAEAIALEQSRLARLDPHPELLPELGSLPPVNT
T1 sequence (Q9H9B1 2-1298 limits assumed): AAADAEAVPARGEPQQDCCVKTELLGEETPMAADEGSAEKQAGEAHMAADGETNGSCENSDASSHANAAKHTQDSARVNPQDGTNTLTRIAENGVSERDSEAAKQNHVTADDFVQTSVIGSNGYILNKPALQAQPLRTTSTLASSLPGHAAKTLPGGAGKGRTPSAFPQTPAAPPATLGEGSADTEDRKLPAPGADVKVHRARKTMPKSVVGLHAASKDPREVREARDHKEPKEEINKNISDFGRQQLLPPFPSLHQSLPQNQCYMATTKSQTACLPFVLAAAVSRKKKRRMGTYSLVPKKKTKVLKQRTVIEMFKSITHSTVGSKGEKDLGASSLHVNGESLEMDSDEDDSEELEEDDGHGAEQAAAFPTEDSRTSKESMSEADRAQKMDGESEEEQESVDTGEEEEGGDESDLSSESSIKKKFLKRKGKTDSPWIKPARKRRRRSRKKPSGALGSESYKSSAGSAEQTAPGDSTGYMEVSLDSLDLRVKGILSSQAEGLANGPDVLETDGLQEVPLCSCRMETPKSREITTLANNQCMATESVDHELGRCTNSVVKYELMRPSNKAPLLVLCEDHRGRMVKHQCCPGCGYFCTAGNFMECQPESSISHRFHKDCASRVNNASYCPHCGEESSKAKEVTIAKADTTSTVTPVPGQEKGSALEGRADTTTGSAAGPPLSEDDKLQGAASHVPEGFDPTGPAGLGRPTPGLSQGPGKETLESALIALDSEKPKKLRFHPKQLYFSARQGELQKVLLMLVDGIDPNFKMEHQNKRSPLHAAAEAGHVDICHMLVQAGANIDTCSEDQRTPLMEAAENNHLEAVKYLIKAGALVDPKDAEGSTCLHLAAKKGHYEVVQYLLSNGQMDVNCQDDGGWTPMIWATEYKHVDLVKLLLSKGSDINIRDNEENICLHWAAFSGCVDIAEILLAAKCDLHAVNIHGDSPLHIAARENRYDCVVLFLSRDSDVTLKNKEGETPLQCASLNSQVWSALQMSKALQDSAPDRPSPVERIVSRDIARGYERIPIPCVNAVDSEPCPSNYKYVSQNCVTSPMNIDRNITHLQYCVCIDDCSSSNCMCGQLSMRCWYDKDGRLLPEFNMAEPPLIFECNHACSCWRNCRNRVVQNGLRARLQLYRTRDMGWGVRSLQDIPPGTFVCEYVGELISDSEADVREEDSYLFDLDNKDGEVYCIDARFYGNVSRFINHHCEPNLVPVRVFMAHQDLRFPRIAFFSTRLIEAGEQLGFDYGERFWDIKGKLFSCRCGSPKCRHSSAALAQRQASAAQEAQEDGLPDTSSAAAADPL

B1: Heterogeneous nuclear ribonucleoprotein L (protein, UniProt P14866 1-589, looked up)
Heterogeneous nuclear …: MSRRLLPRAEKRRRRLEQRQQPDEQRRRSGAMVKMAAAGGGGGGGRYYGGGSEGGRAPKRLKTDNAGDQHGGGGGGGGGAGAAGGGGGGENYDDPHKTPASPVVHIRGLIDGVVEADLVEALQEFGPISYVVVMPKKRQALVEFEDVLGACNAVNYAADNQIYIAGHPAFVNYSTSQKISRPGDSDDSRSVNSVLLFTILNPIYSITTDVLYTICNPCGPVQRIVIFRKNGVQAMVEFDSVQSAQRAKASLNGADIYSGCCTLKIEYAKPTRLNVFKNDQDTWDYTNPNLSGQGDPGSNPNKRQRQPPLLGDHPAEYGGPHGGYHSHYHDEGYGPPPPHYEGRRMGPPVGGHRRGPSRYGPQYGHPPPPPPPPEYGPHADSPVLMVYGLDQSKMNCDRVFNVFCLYGNVEKVKFMKSKPGAAMVEMADGYAVDRAITHLNNNFMFGQKLNVCVSKQPAIMPGQSYGLEDGSCSYKDFSESRNNRFSTPEQAAKNRIQHPSNVLHFFNAPLEVTEENFFEICDELGVKRPSSVKVFSGKSERSSSGLLEWESKSDALETLGFLNHYQMKNPNGPYPYTLKLCFSTAQHAS
B2: WD repeat-containing protein 70 (protein, UniProt Q9NW82 1-654, looked up)
WD repeat-containing protein …: MERSGPSEVTGSDASGPDPQLAVTMGFTGFGKKARTFDLEAMFEQTRRTAVERSRKTLEAREKEEEMNREKELRRQNEDIEPTSSRSNVVRDCSKSSSRDTSSSESEQSSDSSDDELIGPPLPPKMVGKPVNFMEEDILGPLPPPLNEEEEEAEEEEEEEEEEENPVHKIPDSHEITLKHGTKTVSALGLDPSGARLVTGGYDYDVKFWDFAGMDASFKAFRSLQPCECHQIKSLQYSNTGDMILVVSGSSQAKVIDRDGFEVMECIKGDQYIVDMANTKGHTAMLHTGSWHPKIKGEFMTCSNDATVRTWEVENPKKQKSVFKPRTMQGKKVIPTTCTYSRDGNLIAAACQNGSIQIWDRNLTVHPKFHYKQAHDSGTDTSCVTFSYDGNVLASRGGDDSLKLWDIRQFNKPLFSASGLPTMFPMTDCCFSPDDKLIVTGTSIQRGCGSGKLVFFERRTFQRVYEIDITDASVVRCLWHPKLNQIMVGTGNGLAKVYYDPNKSQRGAKLCVVKTQRKAKQAETLTQDYIITPHALPMFREPRQRSTRKQLEKDRLDPLKSHKPEPPVAGPGRGGRVGTHGGTLSSYIVKNIALDKTDDSNPREAILRHAKAAEDSPYWVSPAYSKTQPKTMFAQVESDDEEAKNEPEWKKRKI
B3: PEF1 (protein, UniProt Q9UBV8 1-284, looked up)
Peflin: MASYPYRQGCPGAAGQAPGAPPGSYYPGPPNSGGQYGSGLPPGGGYGGPAPGGPYGPPAGGGPYGHPNPGMFPSGTPGGPYGGAAPGGPYGQPPPSSYGAQQPGLYGQGGAPPNVDPEAYSWFQSVDSDHSGYISMKELKQALVNCNWSSFNDETCLMMINMFDKTKSGRIDVYGFSALWKFIQQWKNLFQQYDRDRSGSISYTELQQALSQMGYNLSPQFTQLLVSRYCPRSANPAMQLDRFIQVCTQLQVLTEAFREKDTAVQGNIRLSFEDFVTMTASRML
B4: ZC3H11A (protein, UniProt O75152 1-810, looked up)
Zinc finger CCCH …: MPNQGEDCYFFFYSTCTKGDSCPFRHCEAAIGNETVCTLWQEGRCFRQVCRFRHMEIDKKRSEIPCYWENQPTGCQKLNCAFHHNRGRYVDGLFLPPSKTVLPTVPESPEEEVKASQLSVQQNKLSVQSNPSPQLRSVMKVESSENVPSPTHPPVVINAADDDEDDDDQFSEEGDETKTPTLQPTPEVHNGLRVTSVRKPAVNIKQGECLNFGIKTLEEIKSKKMKEKSKKQGEGSSGVSSLLLHPEPVPGPEKENVRTVVRTVTLSTKQGEEPLVRLSLTERLGKRKFSAGGDSDPPLKRSLAQRLGKKVEAPETNIDKTPKKAQVSKSLKERLGMSADPDNEDATDKVNKVGEIHVKTLEEILLERASQKRGELQTKLKTEGPSKTDDSTSGARSSSTIRIKTFSEVLAEKKHRQQEAERQKSKKDTTCIKLKIDSEIKKTVVLPPIVASRGQSEEPAGKTKSMQEVHIKTLEEIKLEKALRVQQSSESSTSSPSQHEATPGARRLLRITKRTGMKEEKNLQEGNEVDSQSSIRTEAKEASGETTGVDITKIQVKRCETMREKHMQKQQEREKSVLTPLRGDVASCNTQVAEKPVLTAVPGITRHLTKRLPTKSSQKVEVETSGIGDSLLNVKCAAQTLEKRGKAKPKVNVKPSVVKVVSSPKLAPKRKAVEMHAAVIAAVKPLSSSSVLQEPPAKKAAVAVVPLVSEDKSVTVPEAENPRDSLVLPPTQSSSDSSPPEVSGPSSSQMSMKTRRLSSASTGKPPLSVEDDFEKLIWEISGGKLEAEIDLDPGKDEDDLLLELSEMIDS

What was measured:
3×MBT domain of L3MBTL1 = test: Triple SILAC pull-down, 3xMBT/3xMBTD355N ratio (cytoplasmic, nuclear and chromatin fractions of 293T cells); assay type: binding, human; conditions: SILAC ratio; for Protein Ratios 3xMBT/D355N: pull-down by 3xMBT vs 3xMBTD355N, 293T cells; for 3xMBT/D355N UNC Heavy / 3xMBT/D355N UNC Light: pull-down 3xMBT vs 3xMBTD355N; for 3xMBT/D355N UNC Heavy: experiment with UNC0638 in heavy SILAC media; for 3xMBT/D355N UNC Light: experiment with UNC0638 in light SILAC media;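 for all read-outs here: proteins quantified with MaxQuant, requiring at least two unique peptides and quantification in both label directions, normalized to the mean of proteins from a digested loading control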
G9a and GLP = molecular target: T1, G9a and GLP; test: Triple SILAC pull-down after UNC0638 treatment of 293T cells, DMSO/UNC0638 ratio of protein captured by 3×MBT; assay type: cell-based; parameters: cells were treated for 24 hours with UNC0638 at 2.5 μM or DMSO vehicle control; endogenous in cells; host or cells: HEK 293T; conditions: for Protein Ratios DMSO/UNC0638: SILAC ratio of protein captured by 3xMBT, 293T cells treated 24 hours with UNC0638 at 2.5 μM or DMSO; for Relative to UNC0638 UNC Heavy / Relative to UNC0638 UNC Light: SILAC ratio DMSO/UNC0638 of protein pulled down with 3xMBT; for Relative to UNC0638 UNC Heavy: UNC0638 in heavy SILAC media; for Relative to UNC0638 UNC Light: UNC0638 in light SILAC media; for Relative to UNC0638 Average: average of UNC Light and UNC Heavy experiments;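 for all read-outs here: mass spectrometry (Q-Exactive) SILAC quantitation, DMSO/UNC0638 ratio computed after subtracting 3×MBTD355N mutant pull-down background, only proteins with at least twofold 3×MBT over mutant signal considered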

| Molecule | Protein Ratios 3xMBT/D355N (3×MBT domain of L3MBTL1) | Protein Ratios DMSO/UNC0638 (G9a and GLP) | 3xMBT/D355N UNC Heavy (3×MBT domain of L3MBTL1) [log base 2] | 3xMBT/D355N UNC Light (3×MBT domain of L3MBTL1) [log base 2] | Relative to UNC0638 UNC Heavy (G9a and GLP) [log base 2] | Relative to UNC0638 UNC Light (G9a and GLP) [log base 2] | Relative to UNC0638 Average (G9a and GLP) [log base 2] |
| --- | --- | --- | --- | --- | --- | --- | --- |
| B1 | 2.4 | 1.3 |  |  |  |  |  |
| B2 | 5.9 | 1.3 |  |  |  |  |  |
| B3 |  |  | 1.48 | 1.78 | 0.30 | 0.17 | 0.24 |
| B4 |  |  | 2.23 | 2.81 | 0.32 | 0.12 | 0.22 |

— patent publication US20140274782A1, “AFFINITY REAGENTS AND METHODS FOR DETECTION, PURIFICATION, AND PROTEOMIC ANALYSIS OF METHYLATED PROTEINS” (The Board of Trustees of the Leland Stanford Junior …, priority 2013, published 2014)
